# Measured values as given in article PMC8280819 (The EMBO Journal, 2021).
# How the values were obtained:
# His-SigH = His-SigH (Mycobacterium tuberculosis H37Rv, UniProt P9WGH9 1-216); test: EMSA
# His-AosR = molecular target: T1, His-AosR (Mycobacterium tuberculosis H37Rv, UniProt P9WM25 1-218); test: EMSA
# T1 sequence: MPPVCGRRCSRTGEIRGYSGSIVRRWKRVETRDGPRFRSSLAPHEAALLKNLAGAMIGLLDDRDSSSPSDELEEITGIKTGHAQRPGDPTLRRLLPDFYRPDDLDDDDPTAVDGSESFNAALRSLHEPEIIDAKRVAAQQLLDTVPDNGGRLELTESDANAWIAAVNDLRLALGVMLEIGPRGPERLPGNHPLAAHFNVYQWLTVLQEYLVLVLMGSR
# Sequence of His-SigH (P9WGH9 whole entry): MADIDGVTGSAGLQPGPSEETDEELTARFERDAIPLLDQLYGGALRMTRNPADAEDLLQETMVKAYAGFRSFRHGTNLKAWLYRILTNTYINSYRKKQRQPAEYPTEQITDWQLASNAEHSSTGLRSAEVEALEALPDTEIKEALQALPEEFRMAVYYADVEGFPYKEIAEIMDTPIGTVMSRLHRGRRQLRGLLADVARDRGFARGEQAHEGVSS
binder,measurement,setting,value
100 bp upstream of mec (intragenic auxiliary promoter) (dsDNA) DNA 1: AGTCGTGCGGTGCTGGCCGGCGTGCTCAATGCTCAGCCGGTAGCCGGAATACCGACCTACCGTGACATGTTTTCCCGGAGCATTCGGGTCTTGAAACTCA DNA 2: TATGAGTTTCAGGACCCGAATGCTCCCCGGGAAACATGTCACGGTAGGTCGGTATTCCGGCTACCGGCTGAGCATTGAGCACGCCGGCCAGCCACCGCACGACT,binding result,His-SigH,binds
same,binding result,His-AosR,binds
